Assay results reported in patent US9534059B2, “TIKI inhibitors” (Children's Medical Center Corporation, priority 2012, dated 2017).
Positions count from the first letter of the chain named. Names and notes keep the numbering of the source.

B1: T56A: alanine mutation in Human TIKI2N construct (no transmembrane domain) (protein, UniProt A6NFA1 20-494, looked up, variant T56A)
extracellular domain: RPQPPDGGQCRPPGSQRDLNSFLWTIRRDPPAYLFGAIHVPYTRVWDFIPDNSKAAFQASTRVYFELDLTDPYTISALASCQLLPHGENLQDVLPHELYWRLKRHLDYVKLMMPSWMTPAQRGKGLYADYLFNAIAGNWERKRPVWVMLMVNSLTERDVRFRGVPVLDLYLAQQAEKMKKTTGAVEQVEEQCHPLNNGLNFSQVLFALNQTLLQQESVRAGSLQASYTTEDLIKHYNCGDLSAVIFNHDTSQLPNFINTTLPPHEQVTAQEIDSYFRQELIYKRNERMGKRVMALLRENEDKICFFAFGAGHFLGNNTVIDILRQAGLEVDHTPAGQAIHSPAPQSPAPSPEGTSTSPAPVTPAAAVPEAPSVTPTAPPEDEDPALSPHLLLPDSLSQLEEFGRQRKWHKRQSTHQRPRQFNDLWVRIEDSTTASPPPLPLQPTHSSGTAKPPFQLSDQLQQQDPPGPASSSAPT
modifications: extracellular domain
B2: R303A: alanine mutation in Human TIKI2N construct (no transmembrane domain) (protein, UniProt A6NFA1 20-494, looked up, variant R303A)
extracellular domain: B1 extracellular domain with A37T, R284A
modifications: extracellular domain

Assays:
[1] = system: Tiki1 and Dkk1 expression; experiment: RT-PCR of Tiki1 and Dkk1 expression in treated whole embryos (FIG. 2M); assay type: in vivo, Xenopus
Protocol: (M) Tiki1 expression is regulated by maternal Wnt signaling. Whole embryos were used for LiCl or UV treatment. 20 or 40 pg of Xwnt8 mRNA was injected into the ventral marginal zone (VMZ) at 4 to 8-cell stage and the VMZ was dissected at stage 10.5 for RT-PCR. ΔNTCF mRNA (1 or 2 ng) was injected into the dorsal marginal zone (DMZ) at 4 to 8-cell stage and the DMZ was dissected at stage 10.5 for RT-PCR. Con: control.
Organizer formation requires maternal Wnt/β-catenin signaling (De Robertis and Kuroda, 2004; Harland and Gerhart, 1997), which is necessary and sufficient for Tiki1 (and Dkk1) expression. Ectopic Xwnt8 induced Tiki1 and Dkk1 expression ventrally, whereas a dominant negative TCF (T cell factor, a DNA-binding transcription factor that mediates beta-catenin signaling), ΔNTCF (Molenaar et al., 1996), suppressed the endogenous Tiki1 and Dkk1 dorsal expression (FIG. 2M). Furthermore LiCl, which stabilizes β-catenin thus dorsalizes embryos, induced Tiki1 and Dkk1 expression, while ultraviolet irradiation, which through microtubule disruption causes defective maternal Wnt signaling thus ventralizes embryos (Harland and Gerhart, 1997), suppressed Tiki1 and Dkk1 expression (FIG. 2M).

Wnt3a = experiment: TOPFLASH assay of TIKI2N mutants co-transfected with Wnt3a in HEK293T cells; assay type: cell-based, human; conditions: 5, 2.5, 1.25 and 0.612 ng plasmid with Wnt3a 20 ng
Protocol: FIG. 8B. Bar graph showing the results of a TOPFLASH assay testing TIKI2 mutations in Human TIKI2N construct (no transmembrane domain). Decreasing doses of 5, 2.5, 1.25 and 0.612 ng of the indicated TIKI2N expression plasmid were cotransfected with Wnt3a (20 ng) in HEK293T cells.
HEK293T, HeLa, L and L-Wnt3a cells (from ATCC) were maintained in Dulbecco's modified Eagle's medium (DMEM; Invitrogen) supplemented with 10% fetal bovine serum (FBS) and 1% penicillin-streptomycin-glutamine (Invitrogen). Lipofectamine 2000 (Invitrogen) or Fugene6 (Roche) was used for all cell transfections. L and L-Wnt3a cells that stably express TIKI2 were generated by infecting cells with retroviruses and selected by puromycin. L cells stably expressing Wnt3a(FLAG) were established by transfecting L cells with a Wnt3a(FLAG) expressing vector and selected with neomycine. L cells stably expressing both Wnt3a(FLAG) and TIKI2 were also generated. TOPFLASH reporter assay was performed as previously described (MacDonald et al., 2008).
A Wnt-responsive reporter (TOP-FLASH) assay was performed to test mutations at T56A, H58A, E85A, E205A, H256A, R303A, H331A in a Human TIKI2N construct (no transmembrane domain). Decreasing doses of 5, 2.5, 1.25 and 0.612 ng of the indicated TIKI2N expression plasmid were co-transfected with Wnt3a (20 ng) in HEK293T cells. […] T56A, H256A, and R303A had no effect on TIM activity, and so are likely to be less important sites for function.

| Molecule | Tiki1 and Dkk1 expression [1] | TIKI activity of TIKI2N mutants (inhibition of Wnt3a-induced TOPFLASH) (Wnt3a) |
| --- | --- | --- |
| [Cl-].[Li+] [LiCl] | induced |  |
| B1 |  | no effect |
| B2 |  | no effect |
